In the NTF2 design screens of Basanta et al. (2020):

assay: protease stability score; higher = more stable; yeast display proteolysis, trypsin and chymotrypsin;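 further: relative to predicted unfolded state with 0 unfolded-like and 1 meaning tenfold more protease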

Sequence	protease stability score
DETTEDDRRRYEEFLMAEITGDFHLVEKLHDPDVRFVLVIGDKIHIHHGREDVRKWIEHDFRKFKNARIELHDVKAYDGRVEIHGRVQVDGVRFDVHITIIIINGRVKEQRLNIR	2.12
DEEEKSLRFAIKMMEELIQTGDEDLFERLLDPDTRLRVGDKTFHGREQVLKWFEEWLKRMGADHVELRLHDMRVVGDKLDLDVEYRQYVGDKDIHDRRHLIIIKVNGRWYFKEVRIL	1.67
SEDEEMSKEASEWMLEIILTGDEDSLRKLLDPDYRLHVDGQEFHGRENVVKAFMEWLQRFGIKHIHLEDTRIEVQGDKVIVHERTHVDVNGKKTETELFLIALKFDGKWMTHSIEIRYE	2.09
SENEKILHDLSKELFDIYHTGNEERWSEMADPHVKIDVNGQEYHGREEVEEELEHWRRRFKNARYEIHKIHVFDGRLLIEGHINIDGKKRQIHFRIHVVNGKIKEMRIEIR	1.82
DHDEKRVREILELFLNAITTGDEETLRHLLDPNVKTDINGVELHGWKDILHHLMEMRIHVRHYETRHLNKIGEYLHLEVHVYGEHHFDGRTREDTYYVNVIILKVNGRWHLHQFSVH	1.39
DDEEEFIRKLFEDFYRAFLTGDWHELFELMDPNTRTEINGVHFHGRHIISEYLVTHIERVDHVSITLTRLDKIGDYLIIDSHLRQDVNGKKIHVRLHMHAHKIDGRWKIHRFEFE	1.34
DEMERNEELALKIIEETQRTGDWHMIYEQLDPHVRIIIGDKTLVGREHVEEWLHRIDHLHVDDMKLEHSRPINGRILLDVHMHVHIRYGDKQVKHTTHVHIIMFKFNGRWYLKIVHIH	2.65
SEEEEKFHRFYKLLLEMILTGNWKEVWDLMDPNARLDVIIGDKSIHNHGWKVILEFMREIRIRHVHIKHMEVYNGRIHLDEHRDIHFNGRDIRSDVIIHAVVIDGRFHHERIEFL	0.751
RDVEHLLEKWMEDHMEALHTGDEDRIHELLDPHVRVHIDGVNLHGRERAVEFMVRSLRELGIKHIKLDVEDVEVQGEKVIIDLRVNLDYDGREHRDKEIIILLKIDGKWVIEEVRRG	1.07
SEDDRDANNMREILQHLWFTGNEEEFLRLLDPDTLFHVNGQQKVGRERVEELLHHLLEKLGADHEEIHDWEVRLQGDKLDIHVHIRLIIGDKEFRIHIDFHIYKIDGRWRIHSVKLEIK	2.1
DEEEEDAERLLRELITWLYTGDFESLEKLMDPTTKLIQGDKTFIGREYLSKLFHDWGHTNVRAKLEDIKVVNGQVHIYGRLHYGDKTSETHFIVRKVNGKWLIKIVEFR	1.62
DHWEELIERALDFHRSLLRTGDPEVLERQADPNAKFVVGDKTLHGRESVSDWMNRVKNIQIHMRDLHVIDGKIEMHVQMHYDGRTSHTRLIADKVDGRWIYRSVSVE	0.69
SELERDAEMAFKIYKHNIETGNEEELDKLVDPNVRLEAENHSTHGREDWYNLMRHFGVKHTDVKDFRIQGDKIHLHGVLHFNGRTFKITLYVHKFDGRWHIKSVEVH	0.364
DEREKHAKDFFDILLHLLLTGDWDKIIRMADPDVKLEIGDKRFHGMEHISETWLKRFTRLGVDHQHFHLHTVKFINGVATIHGRQHLHVGDKTIDLEVIIYVEKIDGRWILNNIEVR	1.11
DEDEKIYRWALSVFLRNFLTGDEDSLRRMMDPDVRLEVGDKEDHGMEKVVRWLTEMMRKFKGATVHLRDHKTQGNKVHLDLELNVGDKHSKLIIIIKKVDGQWIVDEFTVH	1.52
TEDRESILKLITMEQRNLRTGDEERWHELADPDYRLEFENREIHGREHAIRFMIETTLKLGVDHVELIINDVKWQGDKLHIDGHLRLEIGDKIIEERVIIINLKVNGRWLLRRKHVG	1.03
SHEEELEEKIARILLEAWITGDEEFLFRLADPNVKLDIKYGDKRHIHIGREELLKWYRHELERFKNMKIVLHDRHIQGEKVHLHLVMHFNGQRIDVRIEVIIINGRIKHIHIEVDEK	2.6
NEIEEIVERLWRLYIQNRLTGDEDQMSRLADPHTRVHIHIGDKHIDIHGMENTARLTTKLRREIRMEIEIHHVTVQGNKLHAEVRLILHIGDKILESDTRIINIFVDGKLRTVHIHIE	1.32
DELEHLLREFFRLWKTAVETGDFRMLLELADPHVKQHIGDKTFVGWERLIESIERIVHEMRITEVTFTQVQVQGDYAHVDLRVFSEVGDKHLILKVELFLLKVNGRWVLESLRVE	1.62
SEDEEFMRHKSELYLEMLKTGDEEELERLFDPNVRLHIGDKNQHGREQFSHFFSKLHKELGVDHLSFEHIHLEVVNGRLIIIMRVHLHVGDKVHDREISIDASKVDGQWLVQSVHIHVR	0.121
SEEERLMEEAMKEFVNNSLTGDFHKMSNLADPNTRIEIDGRELHGRELAEELWERIKNLTVEIKDYKVQGDKVIIYVKIHVNGREKDVILYVQKINGRWLLRHVEVR	1.34
SDIEDESEKFVRMFLHSYETGDWKSLREMFDPNARTIIGDKHTHGRELAVELWEDLFKRLGIKHIEVTHVHIRVINGRIDVRIEVHLNQGEFRYHIIIIVHVTKFNGVWLLTEFRIEEK	1.27
DEDEHRTKYWMQILIEVFKTGDWRRLWELFDPNVRLDINGKDSHGRRDMVRVFEEELRHMGINHIELRDFEIQGEKAIVHMTINVDGRRHELELIFLVVDGRVKEIRVHER	1.88
SEEEEAEREFWEEFLRTSRTGDEELFEELIDPNVKIDINGRDLHGMEEALDTFRELRIKDIKVKHVEEQGDKIILDGRVDGIFDGKYDRVEVTFFVLKIDGRWVYHSIRLE	1.13
HESHEFVKEAFRLWVESLRTGDEKTLSRYADPHVRVTYDGREFHGRDWYVKLMDELRVNDVKLDDVNVQGEKIDIEGTIDGQVNGQDREIKVRLHAEKINGRWVNKKIQID	1.11

Sequence	protease stability score
DEEDHESHEMMRQHFEAFVTGDFESFTRYADPHVRLIVGDKHFHGRDLIVHVFLRLWHELGVKVSRIKEIHSVGDKMHLDGELHVGDKRFRLLVEARKFDGRWFNKRVELVIL	1.48
DDEKRWLEELWKDIQRADETGDEEHFLHLADPHVRFHVNGRDVHGMELVAHILLKWLNEIRIKDFRLKDMRMFENHLRVDGSIVLIVNGQEIETDMILRFEVVNGRIKDREIDIR	1.37
NEEEHTFEIAIRILREMWETGDEKLSQELADPNARLDIGDKHFHGRESLRHRVHEMRIEHTDIHSYHTINGRVHMDWRVDGFINGQRHDTRMHLDVIKIDGRWIIKNVEVK	0.571
DEEYDIAEEILHLLVELILTGDEHEILRYADPNVRLIIGDKDIHGMDWVSRFNMHLRLDDMKWELKRAHVYNGVIDNRGHLVMHGEIDGRHDTIKRETRILINKVNGRWNIREILIH	0.653
DEDTARKQVQIYKDNDPNQLVRMFDENARLKVGDQTVDGREELERWVKRLRTRVDRYSYKNVDIQGERVVIDMVMVVDGKQVEFVVEFVVEDGRIKNAKVQARNKDEETKLQEAIG	1.37
SEEKEIAERFIEMALQVWLTGDERSMVDMVDPHVLNIVGDKEHHGREILLKFLHDFKERFPNVRVKHRDVHIDLQGDKMEVRIDGRIHFDGKQFRLEIIIITTKIDGRWRVTHWEVRIE	2.19
SEKEEQAFRLFKDIVRSMKTGDEDRLHELFDPNVRMDFNGVESHGRELALEVIRIVWREIRIKNIEVHHIEVIGNYVRIDSRLDGRYDGRRIILEMHVQLVKVDGQWIVHNIEIK	2.12
TEDEKMAEDLLKLILEAMETGDERIFRHLVDPNVRVSQGEKQLHGREAVEEMLKHLRLHRVRIRDVHVVGDKIIVQGEIHGEIGDFRFESHIIVYIHKFNGQWRHKSIEIK	1.42
HEDHKFLNEFVELWLRAEHTGDEDWLEENADPNTRVEVNGKSIHGMEYELRHLHHVLDRFKNMTFDTTVTRIDQQGDKAKVKVEIRLDIDGKDIRLEVDLIITKINGRWIVREIRYK	1.22
DESEESSKEAWRLLLEMWKTGDEDEYSRMIDPNVRIEIGDKHFHGMEHASKRLQTFLKKLGFKHFRMILRDKDSQGNKIEIDLQIDIHQGDYHIHRRVTLILVKVDGKWSVESHHVI	1.68
DEEKEVMKELYEMLIHDLLTGNEESLHKLLDPHVKVDIDGKILHGMEATVKWWKEAGADHTDIHSVERQGEKIIINMILRVGDKTLRLHVHIIVVNGRVESIRVELRHE	1.01
TELEEDIVRAWERFVRSLETGNERSIRELMDPNPRIVIGDYEFHGREAIEELLRRIDVIKSVELRHFRLQGEKARLDTTETGHIDGRDVTYETRIISLKVNGVWVLKRIEVR	1.53
SDDEREDRIAIDILLRSTETGDEDTVRHMFDPNARVDVDGREIHGRDASKLFMERVDHIHEVKIDDIKTINGRVHNEGTWYGEYGDKKSELKVHWVLLKIDGRWLIKEVRIR	1.57
DEERKMYTYAHKLLKTSHDTGNEDDLTNLVDPNVRIDINGRDIHGWDFWHEMMTKLGVNVFETKHVELQGNKLHIDGTLHVDGRTHRVTINNIKIDGRWIIKHVHIE	-0.3
SEEEESARRAWEKILHVLETGDERDSRRLMDPDTKIEQGDKTEHGMEKIAKMITEWRFHDVKLTDMRVIGDKVEIDGTVRGEFDGREYKIHVFILVVKINGRWVIHKTVLG	1.06
SEVEEDIRKWLKEHTDSIRTGDEERMLRNMDPHVRVDIDGVEHHGWEHLEEFIHRLTKKIKNMRVDWHRVRFQGDKAEIDGELDIDGRVTHVHIHSIKVDGRWYIKEIYIT	1.24
DELEEDSKKFFEILIKAYWTGDFTTLSRMMDPHVRNDINGRDIHGMEELSRVETEISRKYGADHFDFHIKDFKVQGEKLTVHGRIIIRVNGKTFEHDEIFYLIKIDGKWTWESVEVL	0.989
KDTKRALDELSELELHADETGDWRVKHELLDPHTRIVIGDKTIHGREDMLTLMKKLQEHWRLKTIEIHHTEVVDGRIDADTILVGIVDGVERELRVRLIILKINGRWIYTSIKFD	1.14
SDEEERTRTAIEQLIELRLTGDEEMLHKLVDPHYRLHFIVDGRDLDFIGWRDFQRIFHEETKKFKNMRIEWRHVDIVNGVVTVHIELKIGDKRDEIDLFFFKINGRWILKSVEVHRR	1.47
SEDSEQALTIIEQLTKNLATGDEDTAEELVDPNVRINIGDKTIHGMHELSRFLLELRSEHRSHIRDVRVQGDKINVEGEDEIIIQVNGQEIRIRKHVHWIIDKIDGVWFVRSVNIH	1.89
DEHRELEERMHELIQKANETGDWERWMELADPHTRLIVGDKEFHGMERSYEHILELFRRLGVERVEVRIERRDEQGEKINLDVIIIIGDKTIRLILIIYKVDGRWLLRSVEIR	1.63
SEEHEMLKRIMELVIHLFLTGNEDWLRELIDPDTRLHINGVDNHGREEAIRWLHEYNKHLRIHTMEIKRLDVVNGQAHSHVHHEWTINGKQHETEMELIVVVVNGKVKSQELRIK	0.629
HEDEEIVKTFAKIRTELERTGDWETIMRLLDPHVRMDIDGVRVHGMEEVVRHIREFEEKFGVTNVQSRFRDVRIIGDKVDIHSQVHINGVEKNLHIHVEKFNGKWVITEIKIE	1.28
DETSREEEEHARLWTHAWLTGDEELFKKLADPHVKTEIDGRDLIGRDEMTRMFHDLLRELGVKHSTIEEIHIVNGRVEIRISIEVDGRPIKVRIHVEFFNGRVQRIQIRYE	0.903
NDEEQVAHKFFEKLMHALLTGDEERLKELHDPDVRVDYGNFKLVGREKMVEFWHRFLEEIRLRNTHIETYHIFDGRLEIHSRIHIEVDGKIRIMEVYLEVRKIDGKWRLTHVEFR	1.68
